For this test, the target named is T1, PCNA (Pol30) immunoprecipitated in the co-IP of Figure 2C (S. cerevisiae, UniProt P15873 1-258).
T1 construct: Pol30 (PCNA), S. cerevisiae; homotrimeric clamp of three copies of Pol30; No tag is named for PCNA in this experiment; the methods precipitate with an anti-PCNA antibody; source: S. cerevisiae, in lysate
T1 sequence (looked up): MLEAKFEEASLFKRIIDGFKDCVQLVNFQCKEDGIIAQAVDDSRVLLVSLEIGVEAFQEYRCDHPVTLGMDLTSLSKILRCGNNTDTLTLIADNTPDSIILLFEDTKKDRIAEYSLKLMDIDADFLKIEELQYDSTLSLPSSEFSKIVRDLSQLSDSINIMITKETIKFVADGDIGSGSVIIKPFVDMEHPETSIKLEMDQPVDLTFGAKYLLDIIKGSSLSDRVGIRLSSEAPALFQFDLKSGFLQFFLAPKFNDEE
In words: co-IP; PCNA immunoprecipitated from yeast extract (methods: 2 μg anti-PCNA antibody, overnight at 4 °C, washes with lysis buffer at 220 mM NaCl); level of FLAG-tagged Pol3 or Pol3-01 co-IPed measured (Figure 2C). The conditions noted are these: partners not purified.

B1: FLAG-tagged Pol3-01 (Pol3-01-Flag) of the co-IP of Figure 2C (natural protein, S. cerevisiae, UniProt P15436 1-1097, looked up)
chain: MSEKRSLPMVDVKIDDEDTPQLEKKIKRQSIDHGVGSEPVSTIEIIPSDSFRKYNSQGFKAKDTDLMGTQLESTFEQELSQMEHDMADQEEHDLSSFERKKLPTDFDPSLYDISFQQIDAEQSVLNGIKDENTSTVVRFFGVTSEGHSVLCNVTGFKNYLYVPAPNSSDANDQEQINKFVHYLNETFDHAIDSIEVVSKQSIWGYSGDTKLPFWKIYVTYPHMVNKLRTAFERGHLSFNSWFSNGTTTYDNIAYTLRLMVDCGIVGMSWITLPKGKYSMIEPNNRVSSCQLEVSINYRNLIAHPAEGDWSHTAPLRIMSFAIACAGRIGVFPEPEYDPVIQIANVVSIAGAKKPFIRNVFTLNTCSPITGSMIFSHATEEEMLSNWRNFIIKVDPDVIIGYNTTNFDIPYLLNRAKALKVNDFPYFGRLKTVKQEIKESVFSSKAYGTRETKNVNIDGRLQLDLLQFIQREYKLRSYTLNAVSAHFLGEQKEDVHYSIISDLQNGDSETRRRLAVYCLKDAYLPLRLMEKLMALVNYTEMARVTGVPFSYLLARGQQIKVVSQLFRKCLEIDTVIPNMQSQASDDQYEGATVIEPIRGYYDVPIATLDFNSLYPSIMMAHNLCYTTLCNKATVERLNLKIDEDYVITPNGDYFVTTKRRRGILPIILDELISARKRAKKDLRDEKDPFKRDVLNGRQLALKISANSVYGFTGATVGKLPCLAISSSVTAYGRTMILKTKTAVQEKYCIKNGYKHDAVVVYGDTDSVMVKFGTTDLKEAMDLGTEAAKYVSTLFKHPINLEFEKAYFPYLLINKKRYAGLFWTNPDKFDKLDQKGLASVRRDSCSLVSIVMNKVLKKILIERNVDGALAFVRETINDILHNRVDISKLIISKTLAPNYTNPQPHAVLAERMKRREGVGPNVGDRVDYVIIGGNDKLYNRAEDPLFVLENNIQVDSRYYLTNQLQNPIISIVAPIIGDKQANGMFVVKSIKINTGSQKGGLMSFIKKVEACKSCKGPLRKGEGPLCSNCLARSGELYIKALYDVRDLEEKYSRLWTQCQRCAGNLHSEVLCSNKNCDIFYMRVKVKKELQEKVEQLSKW
notes: Pol3, catalytic subunit of DNA polymerase delta, S. cerevisiae, pol3-01 allele (D321A, E323A); the tags may be swapped in the text; source: S. cerevisiae, in lysate
For B1, the “fold reduction in co-IP against Pol3” value worked out at 4 fold.

The values above are taken from PMC9957047, “A Role for the Interactions between Polδ and PCNA Revealed by Analysis of pol3-01 Yeast Mutants” (Genes, 2023).
